Assay results from patent US12673971B2, “Amyloid-β aggregation inhibitor, pharmaceutical composition foramyloid-β aggregation disease, and use application of same” (O-FORCE CO., LTD, priority 2020, dated 2026).

What was measured:
Aβ25-35 aggregates = biological target: T1, Aβ25-35 aggregates (Homo sapiens, UniProt P05067); test: Dissociation of pre-formed Aβ25-35 aggregates (ThT fluorescence); format: biochemical; conditions: 40 μL of 10 mmol/L peptide added to 4000 μL reaction solution with aggregates of 0.1 mM Aβ25-35 (24 h, 37° C.); 4 hr vs 0 hr, FIG. 7
T1 construct: The Aβ25-35 is a peptide constituted by 11 amino acid residues consisting of the 25th to 35th amino acid residues
Method: A reaction solution with the following composition was prepared and incubated at 37° C. for 24 hours to form aggregates of Aβ25-35. After incubation, the fluorescence intensities of the reaction solution with the following composition to which Aβ25-35 was added and a reaction solution to which water was added instead of Aβ25-35 were measured as in Example 1.
Then, 40 μL of 10 mmol/L Peptide 1 or Peptide 2 was added to 4000 μL of the reaction solution in which the aggregates were formed (0 hr), the mixture was incubated at 37° C., and the change in fluorescence intensity over time was measured (n=3). As a control, a reaction solution to which water was added instead of Peptide 1 and Peptide 2 was also measured at 0 hr in the same way. Then, the percentage (%) of decrease in fluorescence intensity after 4 hr was obtained from the fluorescence intensity at 0 hr.

Aβ25-35 [1] = biological target: T2, Aβ25-35 (Homo sapiens, UniProt P05067); test: Concentration assay (ThT fluorescence, varied final peptide concentration); format: biochemical; conditions: for fluorescence intensity compared with the negative control: 37° C.
T2 construct: The Aβ25-35 is a peptide constituted by 11 amino acid residues consisting of the 25th to 35th amino acid residues
Method: The concentrations of Peptide 1 (GSGNR (SEQ ID NO: 1)) and Peptide 2 (GSGFK (SEQ ID NO: 2)) with respect to Aβ25-35 were checked. Unless otherwise indicated, measurements were performed according to (2) above.
First, as for Peptide 2 (GSGFK (SEQ ID NO: 2)), 200 μL of mixed solution with the composition shown in Table 2 below was added per well, 10 μL of 2 mmol/L ThT was further added to the well immediately before measurement, and this reaction solution was incubated at 37° C. The change in fluorescence intensity 4 hours after the start of measurement was measured using the above-mentioned measurement device (n=3). Furthermore, reaction solutions with the following composition but with different final concentrations of Peptide 2 were also measured in the same way. As a negative control, a reaction solution with the following composition to which neither Peptides 1 nor 2 was added was also measured in the same way.
Next, as for Peptide 1 (GSGNR (SEQ ID NO: 1)), 200 μL of mixed solution with the composition shown in Table 2 above was added per well, 10 μL of 2 mmol/L ThT was further added to the well immediately before measurement, and this reaction solution was incubated at 37° C. The change in fluorescence intensity 8 hours after the start of measurement was measured using the above-mentioned measurement device (n=6). Furthermore, reaction solutions with the composition above but with different final concentrations of Peptide 1 were also measured in the same way. As a negative control, a reaction solution with the composition above to which neither Peptides 1 nor 2 was added was also measured in the same way.

Aβ25-35 [2] = biological target: T2, Aβ25-35; test: Aggregation inhibition assay (thioflavin T fluorescence); format: biochemical; conditions: 0.1 mM peptide, 0.1 mM Aβ25-35, 0.1 mM ThT, Tris-HCl pH 7.5, 37° C., FIG. 1; for fluorescence intensity of the reaction solution after 8 and 24 hours: vs negative control; for fluorescence intensity of the reaction solution 4 hours after incubation: vs negative control (Aβ25-35 only)
Excerpt: An Aβ-derived fragment peptide was used for aggregation of Aβ. Aβ25-35, which has high aggregability, was selected as the fragment peptide. The Aβ25-35 is a peptide constituted by 11 amino acid residues consisting of the 25th to 35th amino acid residues in the full length sequence of human-derived Aβ (GSNKGAIIGLM (SEQ ID NO: 4), hereinafter also referred to as Ab25-35).
The fluorescent dye thioflavin T (ThT) binds to Ab aggregates and emits strong fluorescence upon binding, and thus the increase or inhibition of aggregation can be determined by measuring the fluorescence intensity. Thus, the inhibition of aggregation of Aβ25-35 by Peptide 1 (GSGNR (SEQ ID NO: 1)) and Peptide 2 (GSGFK (SEQ ID NO: 2)) was checked using ThT.
Specifically, a reaction solution with the following composition was prepared and dispensed into wells such that the amount of the reaction solution per well was 300 μL, and incubated at 37° C., and the change in fluorescence intensity over time was measured using a measurement device (product name Cytation5, manufactured by BioTek) (n=3). The measurement wavelengths were set such that the excitation wavelength (ex) was 444 nm and the emission wavelength (em) was 480 nm. As a control, a reaction solution to which water was added instead of Peptide 1 and Peptide 2 was also measured in the same way.

Aβ25-35 [3] = biological target: T2, Aβ25-35; test: ThT fluorescence of the solutions administered to the mouse groups; format: biochemical; conditions: 0.5 μg/μL Aβ25-35 and 0.25 μg/μL Peptide 2 mixed in equal amounts, 37° C., day 11, vs Aβ25-35 solution, FIG. 3
Method: In parallel with the administration to the mice in each group, the fluorescence intensity was measured for the solutions administered to each group. Specifically, a mixed solution obtained by mixing 0.5 μg/μL Aβ25-35 and 0.25 μg/μL Peptide 2 in equal amounts, which was the same as that administered to the administration group, and a 0.5 μg/μL Aβ25-35 solution, which was the same as that administered to the negative control group, were each added in an amount of 100 μL per well, and 10 μL of 1 mmol/L ThT was further added to the well immediately before measurement. These reaction solutions were each reacted at 37° C., and the fluorescence intensity was measured as in Example 1 above.

C57BL/6 mice [4] = test: Y-maze (short-term memory assessment) test; format: in vivo; conditions: 2 μL of 0.5 μg/μL Aβ25-35 and 2 μL of 0.25 μg/μL Peptide 2 into hippocampal CA1; days 11, 27 and 39; vs negative control group (Aβ25-35 only), FIG. 4
Method: In this example, 2 μL of 0.5 μg/μL Aβ25-35 and 2 μL of 0.25 μg/μL Peptide 2 were directly administered using a micro syringe to the CA1 area of the hippocampus of the brain of the administration group of C57BL/6 mice (7 to 13 months old mice) (n=3). In a similar manner, 2 μL of 0.5 μg/μL Aβ25-35 was directly administered using a micro syringe to the CA1 area of the hippocampus of the brain of the negative control group of C57BL/6 mice (n=3). Neither 2 μL of Aβ25-35 nor Peptide 2 was administered to the positive control group of C57BL/6 mice (n=3). Each group was then given a Y-maze (short-term memory assessment) test on days 11, 27, and 39 after administration, and an object recognition test over 3 days starting from day 49. • Administration group (7 months old): Aβ25-35(+)/GSGFK(+) • Negative control group (7 months old): Aβ25-35(+)/GSGFK(−) • Positive control group (13 months old): Aβ25-35(−)/GSGFK(−)
The Y-maze test was conducted in a general manner under the following conditions. That is to say, mice were placed such that their noses faced the wall at an end of one particular arm among the three arms. The mice were allowed to move freely for 10 minutes, and their behavior was captured on a monitor of an analyzer (product name: Time YM1, manufactured by O'hara & Co., Ltd.) to calculate the alternation behavior rate (alternation behavior (%)).

C57BL/6 mice [5] = test: Object recognition test (ORT); format: in vivo; conditions: administration group Aβ25-35(+)/GSGFK(+), day 52 (test over 3 days from day 49), FIG. 6
Method: In this example, 2 μL of 0.5 μg/μL Aβ25-35 and 2 μL of 0.25 μg/μL Peptide 2 were directly administered using a micro syringe to the CA1 area of the hippocampus of the brain of the administration group of C57BL/6 mice (7 to 13 months old mice) (n=3). In a similar manner, 2 μL of 0.5 μg/μL Aβ25-35 was directly administered using a micro syringe to the CA1 area of the hippocampus of the brain of the negative control group of C57BL/6 mice (n=3). Neither 2 μL of Aβ25-35 nor Peptide 2 was administered to the positive control group of C57BL/6 mice (n=3). […]
The object recognition test (ORT) from day 49 was conducted as follows. […] For each group, the speed of movement of the mice in the cage was measured, as well as the percentage (%) of time they stayed in the center region of the cage (the inner region being at least 7.5 cm away from a side wall of the cage).
After one day, two identical objects were placed in the cage and the mice were allowed to explore freely for one hour (sample phase). […] Also, the approach time of the mice to each object was measured in each of the sample and test phases. The percentage of the exploration time for the object on the right side with respect to the total exploration time was then determined (100× right side exploration time/total exploration time (%)).

[6] = Peptide 1, with respect to 100 μmol/L Aβ25-35, 8 hours, FIG. 2(B)
[7] = Peptide 2, with respect to 100 μmol/L Aβ25-35, 4 hours, FIG. 2(A)

| Substance | decrease in fluorescence intensity 4 hours after peptide addition to pre-formed aggregates (Aβ25-35 aggregates) | fluorescence intensity compared with the negative control (Aβ25-35 [1]; Peptide 1, 100 μmol/L Aβ25-35, PBS, 8 hours after start of measurement, FIG. 2(B)) | final concentration at which aggregation was inhibited in a particularly excellent manner (Aβ25-35 [1]; [6]) | final concentration at which aggregation was significantly inhibited sufficiently (Aβ25-35 [1]; [6]) [µmol/L] | fluorescence intensity of the reaction solution after 8 and 24 hours (Aβ25-35 [2]) | fluorescence intensity of the reaction solution 4 hours after incubation (Aβ25-35 [2]) | fluorescence intensity compared with the negative control (Aβ25-35 [1]; Peptide 2, 100 μmol/L Aβ25-35, PBS, 4 hours after start of measurement, FIG. 2(A)) | final concentration at which aggregation was inhibited in a particularly excellent manner (Aβ25-35 [1]; [7]) | final concentration at which aggregation was more effectively inhibited (Aβ25-35 [1]; [7]) [µmol/L] | final concentration at which aggregation was significantly inhibited sufficiently (Aβ25-35 [1]; [7]) [µmol/L] | fluorescence intensity of the mixed solution on day 11 (Aβ25-35 [3]) | alternation behavior rate (short-term memory) (C57BL/6 mice [4]) | percentage of exploration time for the object on the right side, test phase compared with sample phase (C57BL/6 mice [5]) |
| --- | --- | --- | --- | --- | --- | --- | --- | --- | --- | --- | --- | --- | --- |
| GSGNR [Peptide 1] | significant decrease in fluorescence intensity | significantly reduced the fluorescence intensity | around 10 μmol/L | ≥ 1 | decreased significantly compared with the negative control after 8 and 24 hours | had increased 4 hours after incubation | – | – | – | – | – | – | – |
| GSGFK [Peptide 2] | significant decrease in fluorescence intensity | – | – | – | did not increase after 8 and 24 hours | slightly increased 4 hours after incubation, but it was well below the negative control | significantly reduced the fluorescence intensity | around 10 μmol/L | ≥ 10 | ≥ 5 | did not show an increase in fluorescence intensity | short-term memory is maintained as with the positive control group | significant increase in the percentage of exploration time for the object on the right side in the test phase |
